This passage reports stoichiometry N results from paper PMC12684077.

For the assay, the target named is RSV prefusion F (PR-DM) (respiratory syncytial virus A) (UniProt P03420). The experiment in a line: cryo-EM structure.

Usually stoichiometry N stands for a count of units in the complex or per binding partner. As for “RSV prefusion F (PR-DM) (from UniProt P03420) (complex)”, the stoichiometry N worked out at 3.
